Test results from PMC4287450, “PRDM9 Drives Evolutionary Erosion of Hotspots in Mus musculus through Haplotype-Specific Initiation of Meiotic Recombination”.

B1: chr1_158 oligo 1 (dsDNA)
DNA 1: CGTCTGCTCTCTGTAGGAAGTGCTCCATGGACAGTAGCTTCTGCCTTTCCTT
DNA 2: AAGGAAAGGCAGAAGCTACTGTCCATGGAGCACTTCCTACAGAGAGCAGACG
B2: chr1_185 oligo 1 (dsDNA)
DNA 1: TCCCAGGACTATGAGTTTAGAGAGAAAAAAAACTAAAGTTACAGTAGCTTCATGTTG
DNA 2: CAACATGAAGCTACTGTAACTTTAGTTTTTTTTCTCTCTAAACTCATAGTCCTGGGA
B3: chr1_185 oligo 2 (dsDNA)
DNA 1: AGAGAGAAAAAAAACTAAAGTTACAGTAGCTTCATGTTGTAGATGGGTATATACCGCT
DNA 2: AGCGGTATATACCCATCTACAACATGAAGCTACTGTAACTTTAGTTTTTTTTCTCTCT

What follows are binders tested against PRDM9Dom2 (Mus musculus domesticus (B6 allele), UniProt Q96EQ9 513-843) (assay: competition; 20x unlabeled vs labeled CAST DNA; EMSA as in Billings et al. 2013 (buffer, pH, temperature not given); unlabeled competitor dsDNA at 20x labeled DNA). Settings: protein: recombinant; blunt.
Chain of PRDM9Dom2 (Q96EQ9 513-843): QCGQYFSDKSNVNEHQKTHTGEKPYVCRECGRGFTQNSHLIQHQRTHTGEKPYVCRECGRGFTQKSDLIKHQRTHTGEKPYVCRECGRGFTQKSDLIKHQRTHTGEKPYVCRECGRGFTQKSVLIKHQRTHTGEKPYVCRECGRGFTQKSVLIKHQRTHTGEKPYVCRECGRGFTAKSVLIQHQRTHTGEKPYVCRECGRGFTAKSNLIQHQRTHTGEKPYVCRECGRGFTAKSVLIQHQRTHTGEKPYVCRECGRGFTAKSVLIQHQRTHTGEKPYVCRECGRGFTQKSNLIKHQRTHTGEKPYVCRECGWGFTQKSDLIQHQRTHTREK

Binding result, binds:
B1
B2
B3
